In patent US20220332804A1 (CSL INNOVATION, published 2022):

Columns and labels:
Assay in all cases: SPR, antibody captured, C2 as analyte;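 note: biacore SPR at 37 °C, anti-C2 mAbs captured via goat anti-human IgG on CM5 chips, double-referenced sensorgrams fit to a 1:1 kinetic or steady-state model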
human C2 R714A = target: T1, human C2 R714A (human, UniProt P06681 21-752)
T1 sequence: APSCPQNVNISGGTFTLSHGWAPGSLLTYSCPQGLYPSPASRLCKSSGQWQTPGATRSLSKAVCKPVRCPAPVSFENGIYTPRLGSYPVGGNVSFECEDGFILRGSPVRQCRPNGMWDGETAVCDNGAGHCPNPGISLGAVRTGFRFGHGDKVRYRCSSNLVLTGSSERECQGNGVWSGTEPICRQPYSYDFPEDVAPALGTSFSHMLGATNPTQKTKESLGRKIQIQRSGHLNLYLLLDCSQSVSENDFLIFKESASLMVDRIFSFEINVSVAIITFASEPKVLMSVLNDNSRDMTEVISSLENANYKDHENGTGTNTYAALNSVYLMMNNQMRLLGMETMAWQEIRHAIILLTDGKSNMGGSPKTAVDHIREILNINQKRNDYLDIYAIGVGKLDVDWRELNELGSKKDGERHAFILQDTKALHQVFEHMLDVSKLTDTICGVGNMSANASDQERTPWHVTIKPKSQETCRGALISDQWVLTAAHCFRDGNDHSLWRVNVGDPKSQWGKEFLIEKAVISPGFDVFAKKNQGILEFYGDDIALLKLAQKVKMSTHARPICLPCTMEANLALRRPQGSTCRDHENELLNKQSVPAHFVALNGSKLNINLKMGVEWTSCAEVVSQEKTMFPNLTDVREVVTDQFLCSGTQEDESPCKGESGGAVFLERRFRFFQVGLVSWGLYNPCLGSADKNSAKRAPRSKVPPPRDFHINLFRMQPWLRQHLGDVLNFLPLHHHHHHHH

human C2 A709S = target: T2, human C2 A709S (human, UniProt P06681 21-752)
T2 sequence: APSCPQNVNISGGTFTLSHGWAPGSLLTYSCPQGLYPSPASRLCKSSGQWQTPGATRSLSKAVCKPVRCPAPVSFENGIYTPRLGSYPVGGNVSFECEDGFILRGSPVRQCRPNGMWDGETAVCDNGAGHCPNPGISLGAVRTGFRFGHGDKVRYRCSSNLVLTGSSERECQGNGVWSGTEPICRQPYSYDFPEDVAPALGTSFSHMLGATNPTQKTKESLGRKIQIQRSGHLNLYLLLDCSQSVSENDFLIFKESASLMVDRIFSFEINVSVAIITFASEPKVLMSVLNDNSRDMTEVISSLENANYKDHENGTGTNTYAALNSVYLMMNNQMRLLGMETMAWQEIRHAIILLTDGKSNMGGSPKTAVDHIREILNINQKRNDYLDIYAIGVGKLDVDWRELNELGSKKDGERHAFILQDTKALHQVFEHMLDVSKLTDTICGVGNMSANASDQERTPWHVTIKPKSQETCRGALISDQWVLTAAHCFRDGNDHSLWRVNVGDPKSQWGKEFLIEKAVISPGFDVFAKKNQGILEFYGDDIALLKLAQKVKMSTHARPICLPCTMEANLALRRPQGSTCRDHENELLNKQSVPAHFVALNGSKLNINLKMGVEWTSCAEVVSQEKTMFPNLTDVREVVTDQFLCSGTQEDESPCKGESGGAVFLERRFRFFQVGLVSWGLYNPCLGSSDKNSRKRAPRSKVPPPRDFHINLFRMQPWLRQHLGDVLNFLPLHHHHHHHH

human C2 V418A = target: T3, human C2 V418A (human, UniProt P06681 21-752)
T3 sequence: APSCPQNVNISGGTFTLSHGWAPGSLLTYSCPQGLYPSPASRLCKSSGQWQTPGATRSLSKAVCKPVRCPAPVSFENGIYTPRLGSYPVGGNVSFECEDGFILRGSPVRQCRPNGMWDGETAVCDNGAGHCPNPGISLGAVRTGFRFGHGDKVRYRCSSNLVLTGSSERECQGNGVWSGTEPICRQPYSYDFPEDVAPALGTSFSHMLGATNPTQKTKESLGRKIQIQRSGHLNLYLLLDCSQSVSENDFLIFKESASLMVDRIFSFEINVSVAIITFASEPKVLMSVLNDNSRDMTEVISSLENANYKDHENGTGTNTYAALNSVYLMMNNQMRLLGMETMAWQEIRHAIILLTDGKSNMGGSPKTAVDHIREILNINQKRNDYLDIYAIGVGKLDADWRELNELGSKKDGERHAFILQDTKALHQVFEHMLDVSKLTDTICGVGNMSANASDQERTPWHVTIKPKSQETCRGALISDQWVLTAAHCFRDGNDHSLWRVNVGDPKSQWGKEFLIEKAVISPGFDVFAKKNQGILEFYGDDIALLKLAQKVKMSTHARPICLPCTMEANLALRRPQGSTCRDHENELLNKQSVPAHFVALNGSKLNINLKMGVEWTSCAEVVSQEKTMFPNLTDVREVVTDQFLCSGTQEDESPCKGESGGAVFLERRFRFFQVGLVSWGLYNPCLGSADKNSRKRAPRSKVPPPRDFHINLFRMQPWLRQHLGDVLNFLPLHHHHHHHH

human C2 K443A = target: T4, human C2 K443A (human, UniProt P06681 21-752)
T4 sequence: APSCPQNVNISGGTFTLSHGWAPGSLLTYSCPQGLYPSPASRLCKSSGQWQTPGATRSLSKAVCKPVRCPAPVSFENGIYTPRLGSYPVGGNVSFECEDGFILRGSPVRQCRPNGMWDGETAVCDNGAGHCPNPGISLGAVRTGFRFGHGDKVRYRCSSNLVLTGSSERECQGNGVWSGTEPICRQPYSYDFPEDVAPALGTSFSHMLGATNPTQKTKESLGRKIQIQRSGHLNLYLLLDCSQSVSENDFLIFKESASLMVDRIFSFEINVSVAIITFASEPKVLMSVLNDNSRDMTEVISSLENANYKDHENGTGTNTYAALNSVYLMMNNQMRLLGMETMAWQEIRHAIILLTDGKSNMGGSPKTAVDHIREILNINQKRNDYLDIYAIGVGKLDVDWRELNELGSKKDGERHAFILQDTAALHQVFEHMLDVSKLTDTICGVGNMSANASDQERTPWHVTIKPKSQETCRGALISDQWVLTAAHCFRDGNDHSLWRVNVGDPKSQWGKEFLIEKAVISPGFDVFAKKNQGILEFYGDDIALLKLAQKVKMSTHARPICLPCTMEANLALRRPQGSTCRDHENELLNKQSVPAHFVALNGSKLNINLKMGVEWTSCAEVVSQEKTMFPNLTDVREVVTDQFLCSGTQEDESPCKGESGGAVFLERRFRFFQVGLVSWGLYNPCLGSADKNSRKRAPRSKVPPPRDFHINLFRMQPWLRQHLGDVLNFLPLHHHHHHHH

B1: RF16-226 (antibody, human IgG4 S228P, lambda)
heavy: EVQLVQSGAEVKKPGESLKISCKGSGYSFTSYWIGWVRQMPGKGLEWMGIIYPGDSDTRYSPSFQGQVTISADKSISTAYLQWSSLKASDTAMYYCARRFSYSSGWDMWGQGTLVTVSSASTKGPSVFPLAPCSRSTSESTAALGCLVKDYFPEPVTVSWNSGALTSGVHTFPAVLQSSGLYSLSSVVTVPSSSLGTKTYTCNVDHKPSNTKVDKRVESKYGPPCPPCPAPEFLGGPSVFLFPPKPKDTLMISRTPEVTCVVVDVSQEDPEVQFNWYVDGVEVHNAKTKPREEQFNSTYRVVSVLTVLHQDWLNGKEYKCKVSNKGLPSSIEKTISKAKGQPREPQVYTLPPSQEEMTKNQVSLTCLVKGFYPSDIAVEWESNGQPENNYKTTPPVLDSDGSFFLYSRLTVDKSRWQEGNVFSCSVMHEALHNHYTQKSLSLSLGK
light: SYELTQPPSVSVSPGQTARITCSGDALTSKYVAWYQQKSGLAPLLVIYEDTRRPSGIPAKFSGSSSGSVATLTISGAHGDDEADYYCYSTDASGHQRVFGGGTKLTVLSQPKAAPSVTLFPPSSEELQANKATLVCLISDFYPGAVTVAWKADGSPVKAGVETTKPSKQSNNKYAASSYLSLTPEQWKSHRSYSCQVTHEGSTVEKTVAPTECS
notes: pH-dependent anti-C2 antibody from a phage display library; also called WT
- Kd (human C2 R714A): 53 nM
- Kd (human C2 A709S): 127 nM
- Kd (human C2 V418A): 8 nM
- binding result (human C2 K443A): no binding
